Assay results from patent US20220296690A1 (Pieris, published 2022).

Biological target: T1, Recombinant human CTLA-4 (human, UniProt P16410 36-161, limits assumed)
T1 sequence (looked up): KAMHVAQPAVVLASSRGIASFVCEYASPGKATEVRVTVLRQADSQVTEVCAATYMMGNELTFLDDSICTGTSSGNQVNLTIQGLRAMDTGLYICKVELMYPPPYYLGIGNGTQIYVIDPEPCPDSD
Assay: ELISA; recombinant human CTLA-4 coated at 5 µg/mL, T cell culture supernatant added, detected with rabbit anti-NGAL polyclonal antibody and goat anti-rabbit IgG-HRP
Method: FIG. 2: Detection of functional T-cell secreted CTLA-4 antagonist by ELISA. The supernatant of human peripheral blood T cells, mock-transduced or transduced with pSIN-(NFAT)6-αCTLA-4 and cultured under activatory conditions (cf. Example 1 and FIG. 1) was analyzed for the presence of functionally active CTLA-4 antagonist SEQ ID NO: 28 by ELISA. Recombinant human CTLA-4 was coated on an ELISA plate as described in Example 1, and culture supernatants of transduced and mock-transduced T cells were added. Plate-bound SEQ ID NO: 28 was detected by primary staining with an anti-NGAL polyclonal antibody from the rabbit, secondary staining using goat anti rabbit IgG-HRP and addition of a chromogenic HRP substrate as described in Example 1.
Supernatants were analyzed for the presence of functionally active Anticalin-based CTLA-4 antagonist by ELISA as described in the following: Recombinant human CTLA-4 at a concentration of 5 μg/mL in PBS was added to each well of a 384 well ELISA plate and incubated over night at 4° C. […] Subsequently, rabbit anti-NGAL polyclonal antibody at a concentration of 1 μg/mL in PBS/0.1% (w/v) Tween20/2% (w/v) BSA was added, and bound antibody was detected using goat anti-rabbit IgG-HRP in a dilution of 1:5,000 in PBS/0.1% (w/v) Tween20/2% (w/v) BSA. […] Fluorescence signals in RFU (relative fluorescence units) were measured using a plate fluorescence reader.

binding result: binds
B1: Anticalin-based CTLA-4 antagonist with Strep-tag II, mature processed secreted form (SEQ ID NO: 28) (designed binder)
chain: QDSTSDLIPAPPLSKVPLQQNFQDNQFQGKWYVVGLAGNRILRQDQHPMLMYATIYELKEDKSYQVTSVISSHKKCLYPIATFVPGSQPGEFTLGNIKSYGDKVSYLVRVVSTNYNQHAMVFFKHADTNYESFSITLYGRTKELTSELKENFIRFSKSLGLPENHIVFPVPIDQCIDGSAWSHPQFEK
notes: also called anti-CTLA-4 Anticalin; αCTLA-4
